pKd: −log10 of the molar value. Read-outs that look alike come from different tables or passages of the source.
Experiments:
[1] = molecular target: F-actin prepared from rabbit skeletal muscle (rabbit) (UniProt P68135); assay: co-sedimentation
[2] = molecular target: rhodamine-phalloidin-labeled, 10% biotinylated filamentous actin (UniProt P68135); assay: optical trapping
[3] = molecular target: F-actin prepared from rabbit skeletal muscle (rabbit) (UniProt P68135); assay: co-sedimentation; remark: listed apart in the source

Row | pKd [1] | koff [2] [s⁻¹] | pKd [3] | fraction bound in the first sedimentation at 20 μM actin [3] [%] | Substance
1 | 5.82 | 94.2 | 5.59 | 54.9 | Drosophila myosin-18 M-PDZ (minimal motor domain construct with the N-terminal PDZ domain) (domain or fragment)
2 | 6.00 | 57 | 6.00 |  | Drosophila myosin-18 M-ΔPDZ (minimal motor domain construct without the PDZ domain) (domain or fragment)

Reference: paper PMC3122231
